Like-named read-outs stand apart in the source and are kept apart here.
Columns and labels:
human MerTK [1] = molecular target: T1, human MerTK (human, UniProt Q12866 26-499); assay: SPR BIAcore T200, Ab captured on protein A chip, 25C
T1 construct: also called HuMER
T1 sequence: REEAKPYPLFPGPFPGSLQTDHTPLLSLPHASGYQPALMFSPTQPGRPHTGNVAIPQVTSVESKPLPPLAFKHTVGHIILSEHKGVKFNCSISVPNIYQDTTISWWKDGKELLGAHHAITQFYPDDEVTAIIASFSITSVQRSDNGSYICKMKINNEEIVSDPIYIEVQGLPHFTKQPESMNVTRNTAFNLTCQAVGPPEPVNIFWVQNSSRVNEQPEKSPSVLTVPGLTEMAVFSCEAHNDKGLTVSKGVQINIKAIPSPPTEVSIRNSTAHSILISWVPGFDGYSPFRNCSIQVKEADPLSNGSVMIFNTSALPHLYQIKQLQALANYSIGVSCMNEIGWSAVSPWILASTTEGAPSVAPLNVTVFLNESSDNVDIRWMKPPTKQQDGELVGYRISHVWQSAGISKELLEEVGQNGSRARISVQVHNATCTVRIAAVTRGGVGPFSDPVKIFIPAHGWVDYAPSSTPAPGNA
Excerpt: (§1) For binding affinity determinations of anti-MerTK antibodies of the present disclosure as a control along with commercial MerTK antibodies, Surface Plasmon Resonance (SPR) measurement with a BIAcore™-T200 instrument was used. First, two rabbit antibodies (Y323 and 10g86_D21F11) and the anti-MerTK antibody h13B4.v16 were captured by protein A sensor chip, and eight mouse antibodies (A3KCAT,2D2,7E5G1,7N-20,590H11G1E3, MAB891, MAB8911 and MAB8912-100) were captured by goat anti-mouse IgGs sensor chip respectively on each flow cell to achieve approximately 100RU. Three-fold serial dilutions of human MerTK (0.4 nM to 100 nM) were injected in HBS-EP buffer (0.01M HEPES pH 7.4, 0.15M NaCl, 3 mM EDTA and 0.05% v/v surfactant P20) at 25° C. with a flow rate of 50 μl/min to record the binding response as a function of time. The sensorgram was fitted with one-to-one Langmuir binding model to calculate association rates (kₒₙ) and dissociation rates (koff) (BIAcore T200 evaluation software version 2.0). The binding affinity (equilibrium dissociation constant (KD)) was calculated as the ratio koff/kₒₙ.

[2] = molecular target: T2, human MerTK on human macrophages (human, UniProt Q12866 21-999); assay: cell-based or functional assay
T2 sequence: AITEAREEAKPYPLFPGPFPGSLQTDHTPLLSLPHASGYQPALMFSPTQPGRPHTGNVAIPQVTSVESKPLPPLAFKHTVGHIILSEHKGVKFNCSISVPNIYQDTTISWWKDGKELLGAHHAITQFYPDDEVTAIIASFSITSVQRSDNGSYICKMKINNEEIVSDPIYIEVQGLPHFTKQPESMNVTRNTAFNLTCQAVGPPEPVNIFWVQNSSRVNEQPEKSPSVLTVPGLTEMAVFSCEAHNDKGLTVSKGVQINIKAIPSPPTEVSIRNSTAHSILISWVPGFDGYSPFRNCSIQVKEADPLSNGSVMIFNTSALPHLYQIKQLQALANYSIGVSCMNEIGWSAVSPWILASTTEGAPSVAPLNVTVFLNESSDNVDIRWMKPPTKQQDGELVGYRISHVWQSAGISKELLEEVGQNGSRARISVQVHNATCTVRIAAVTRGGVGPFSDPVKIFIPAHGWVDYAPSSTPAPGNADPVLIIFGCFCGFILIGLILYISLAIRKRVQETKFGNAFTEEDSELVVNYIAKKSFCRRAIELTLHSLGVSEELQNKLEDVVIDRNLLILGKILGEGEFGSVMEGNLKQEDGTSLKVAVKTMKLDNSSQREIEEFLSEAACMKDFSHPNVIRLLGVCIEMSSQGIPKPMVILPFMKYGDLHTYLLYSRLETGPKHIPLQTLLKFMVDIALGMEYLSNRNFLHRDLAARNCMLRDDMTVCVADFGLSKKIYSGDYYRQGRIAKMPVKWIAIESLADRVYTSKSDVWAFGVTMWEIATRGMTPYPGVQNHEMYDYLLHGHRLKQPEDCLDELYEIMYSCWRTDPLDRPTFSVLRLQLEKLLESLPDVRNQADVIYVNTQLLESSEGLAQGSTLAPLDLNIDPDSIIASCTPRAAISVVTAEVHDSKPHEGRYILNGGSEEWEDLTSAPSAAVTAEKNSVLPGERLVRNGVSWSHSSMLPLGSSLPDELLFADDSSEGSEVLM

[3] = molecular target: T2, human MerTK on human macrophages; assay: cell-based or functional assay; remark: listed apart in the source
human MerTK [4] = molecular target: T1, human MerTK; assay: SPR BIAcore T200, Ab captured, 37C
Protocol: (§2) All binding affinity determinations were obtained using Surface Plasmon Resonance (SPR) measurements from a BIAcore™-T200 instrument. Briefly, each rabbit or humanized antibody was captured to achieve approximately 100 RU (Response Units). Then, 3-fold serial dilutions of MerTK from various species (0.4 nM to 100 nM) diluted in HBS-EP buffer (0.01M HEPES pH 7.4, 0.15M NaCl, 3 mM EDTA and 0.05% v/v surfactant P20) was injected into the BIAcore™-T200 instrument at 25° C. or 37° C. with a flow rate of 30 μl/min. Association rates (kₒₙ) and dissociation rates (koff) were calculated using a simple one-to-one Langmuir binding model (BIAcore T200 evaluation software version 2.0). The equilibrium dissociation constant (KD) was calculated as the ratio koff/kₒₙ.

cynomolgus monkey MerTK = molecular target: T3, cynomolgus monkey MerTK (cynomolgus monkey, UniProt A0A2K5V1H9 32-505); assay: SPR BIAcore T200, Ab captured, 37C
T3 construct: Soluble analyte in SPR; also called Cyno MerTK
T3 sequence: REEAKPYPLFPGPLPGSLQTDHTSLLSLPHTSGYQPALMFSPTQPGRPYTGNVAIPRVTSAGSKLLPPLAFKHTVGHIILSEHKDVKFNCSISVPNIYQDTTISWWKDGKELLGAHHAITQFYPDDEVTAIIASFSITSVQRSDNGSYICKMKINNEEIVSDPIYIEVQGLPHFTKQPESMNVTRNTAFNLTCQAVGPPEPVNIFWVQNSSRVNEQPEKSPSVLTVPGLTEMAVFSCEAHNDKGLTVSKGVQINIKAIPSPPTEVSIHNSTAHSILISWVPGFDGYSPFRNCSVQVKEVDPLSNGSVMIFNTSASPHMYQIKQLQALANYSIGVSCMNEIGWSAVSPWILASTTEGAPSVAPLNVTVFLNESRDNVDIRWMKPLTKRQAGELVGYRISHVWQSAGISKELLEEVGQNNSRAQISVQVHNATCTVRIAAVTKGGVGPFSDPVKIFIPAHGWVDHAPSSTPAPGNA
Protocol: as §2

[5] = molecular target: T2, human MerTK on human macrophages; assay: cell-based or functional assay; remark: listed apart in the source
human MerTK [6] = molecular target: T1, human MerTK; assay: SPR (BIAcore kinetic screen), h13B4.v16 captured on protein A chip, hMerTK as analyte, 25°C, 1:1 binding model [Cont.]
Excerpt: as §1

- Kd (human MerTK [1]): 1.6 nM
- fold potency in inhibiting human macrophage phagocytosis, against h10F7.v16 [2]: 5.2 fold
- IC50 (nM), efferocytosis by human macrophages, Average (3 Donors) [3]: 0.08 nM
- IC50 (nM), efferocytosis by human macrophages, Donor A [3]: 0.07 nM
- IC50 (nM), efferocytosis by human macrophages, Donor B [3]: 0.08 nM
- IC50 (nM), efferocytosis by human macrophages, Donor C [3]: 0.09 nM
- Max Inhibition (%), efferocytosis by human macrophages, Average (3 Donors) [3]: 83%
- Max Inhibition (%), efferocytosis by human macrophages, Donor A [3]: 91%
- Max Inhibition (%), efferocytosis by human macrophages, Donor B [3]: 82%
- Max Inhibition (%), efferocytosis by human macrophages, Donor C [3]: 77%
- Kd (human MerTK [4]): 5.1 nM
- Kd (cynomolgus monkey MerTK): 5.7 nM
- IC50 (nM), efferocytosis by human macrophages, Average (3 Donors) [5]: 0.08 nM
- Kd (human MerTK [6]): 1.63 nM
- koff (human MerTK [6]): 0.000151 s⁻¹
- kon (human MerTK [6]): 92400 M⁻¹ s⁻¹
B1: h13B4.v16 (antibody, V domains shown)
VH: EVQLVESGEGLVQPGGSLRLSCAASGFSLSSYAMGWVRQAPGKGLEYVGIINSYGNTYYANWAKGRFTISRDNSKNTVYLQMGSLRAEDMAVYYCARDPGVSSNLWGRGTLVTVSS
VL: DIQMTQSPSTLSASVGDRVTITCQASQNIYSGLAWYQQKPGKAPKLLIYGASKLASGVPSRFSGSGSGTEFTLTISSLQPDDFATYYCQATYYSSNSVAFGGGTKVEIK
notes: Humanized, human IgG1; also called 13B4 Fully Humanized; 13B4 Humanized polished mAb
